Source: article PMC11359615, “Evaluation of ABD-Linked RM26 Conjugates for GRPR-Targeted Drug Delivery” (ACS Omega, 2024)
Non-standard residues stand in square brackets, D forms with d. maleimide‑DOTA = DOTA attached via maleimide to the Cys thiol; Sta = CC(C)C[C@H](N)[C@@H](O)CC(=O)O; PEG4 = NCCOCCOCCOCCOCCC(=O)O

B1: ABD-Cys14 control (recombinant ABD035 with N-terminal MEDANS, a Cys, a C-terminal Sortase A recognition sequence and a His-tag) (designed binder)
chain: MEDANSLAEAKVLANRELDKYGVSDFYCRLINKAKTVEGVEALKLHILAALPVDGSGSGSLPETGG
notes: also called ABD control; MEDANS-ABD; source: E. coli BL21 (DE3)*, purified (IMAC, HisPur Cobalt resin)
B2: ABD (albumin-binding domain; recombinant ABD035 with N-terminal MEDANS, a Cys and a C-terminal Sortase A recognition sequence and His-tag) (designed binder)
chain: MEDANSLAEAKVLANRELDKYGVSDFYCRLINKAKTVEGVEALKLHILAALPVDGSGSGSLPETGG
notes: also called ABD control; unconjugated ABD; source: E. coli BL21 (DE3)*, purified (IMAC, HisPur Cobalt resin); not shown: His6, C-terminal, kept
B3: ABD-RM26 Gen 2A conjugate (designed binder)
chain: MEDANSLAEAKVLANRELDKYGVSDFYC(maleimide‑DOTA)RLINKAKTVEGVEALKLHILAALPVDGSGSGSLPETGGG[PEG4][dF]QWAVGH[Sta]L-NH2
modifications: numbers in words are those of the source; also: DOTA loaded with 111In in cell assays

Legend:
[1] = target: T1, human serum albumin (human, UniProt P02768 25-609); test: SPR; Biacore 8K; HSA immobilised on a CM5 chip by amine coupling (1250 RU); constructs at 50, 25, 12.5, 6.25 and 3.125 nM flowed at 30 uL/min in PBS-T (PBS + 0.05% Tween-20, pH 7.4); 150 s association, 3000 s dissociation; 1:1 Langmuir fit; settings: both partners purified
T1 construct: human serum albumin (HSA), immobilised by amine coupling; also called HSA

[2] = target: T2, human serum albumin (human, UniProt P02768 25-609); test: SPR; Biacore 8K; HSA amine-coupled on CM5 chip (1250 RU); constructs at 50, 25, 12.5, 6.25 and 3.125 nM flowed over at 30 uL/min in PBS-T pH 7.4; 150 s association, 3000 s dissociation; 1:1 Langmuir fit; settings: both partners purified
T2 construct: human serum albumin; also called HSA

[3] = target: T3, gastrin-releasing peptide receptor (human (endogenous in PC-3), UniProt P30550 1-384); test: radioligand binding; real-time binding kinetics of 111In-labelled conjugates on living GRPR-expressing PC-3 cells; conditions in the Supporting Information; settings: one partner purified
T3 construct: gastrin-releasing peptide receptor on GRPR-expressing PC-3 cells; also called GRPR; source: endogenous, on living PC-3 cells
T3 sequence (P30550 whole entry): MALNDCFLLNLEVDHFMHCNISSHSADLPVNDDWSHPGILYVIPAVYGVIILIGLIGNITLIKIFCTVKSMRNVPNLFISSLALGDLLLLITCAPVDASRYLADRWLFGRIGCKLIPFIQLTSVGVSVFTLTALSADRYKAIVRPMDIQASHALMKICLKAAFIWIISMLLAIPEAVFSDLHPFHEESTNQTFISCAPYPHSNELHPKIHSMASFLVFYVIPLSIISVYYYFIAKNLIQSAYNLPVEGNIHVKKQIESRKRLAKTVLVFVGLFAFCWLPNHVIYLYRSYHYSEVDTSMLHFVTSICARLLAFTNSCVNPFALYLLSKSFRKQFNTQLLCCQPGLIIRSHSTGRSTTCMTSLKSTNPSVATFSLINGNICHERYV

| Binder | koff [1] | kon [1] | Kd [2] | Kd [3] | koff [3] | kon [3] |
| --- | --- | --- | --- | --- | --- | --- |
| B1 | 0.00024 s⁻¹ | 1.8e+07 M⁻¹ s⁻¹ | – | – | – | – |
| B2 | – | – | 0.013 nM | – | – | – |
| B3 | – | – | 0.048 nM | 120 ± 140 nM | 0.013 s⁻¹ | 670000 M⁻¹ s⁻¹ |
